Changes are numbered by the printed parent chain. Names may count otherwise.
Legend:
[1] = target: human N-cadherin naturally expressed on DX3 melanoma cells (human) (UniProt P19022); assay: adhesion of DX3 cells to coated monomeric N-cadherin-Fc, in oxidising buffer and in 10 mM DTT
[2] = target: the molecule itself; assay: disulphide-bonded cis-dimers in the coating layer; non-reducing SDS-PAGE and immunoblot
Protocol: (§1) Monomeric N-cadherin-Fc (1 μg/ml) bearing the three alternative cysteine point mutations, D1C, R25C or D27C, was immobilised on 96-well plates with goat antihuman IgG Fe as previously described for E-cadherin-Fc (Corps et al., 2001). Unbound cadherin was removed by washing with HBSS, 0.1% BSA, followed by HBSS alone. The plates were not blocked with additional protein. K562 transfectants expressing N-cadherin bearing complementary or non-complementary point mutations (6×10^4 Cells in 100 μl HBSS containing 10 mM DTT), in single cell suspension, were added to the coated wells which contained 100 μl HBSS. The final concentration of DTT was therefore 5 mM DTT during the adhesion stage. The cells were allowed to settle for 10 min at room temperature before incubation at 37° C. for 30 minutes to complete adhesion. […] Adherent cells from a pool of 4 wells for each experimental condition were then solubilised in sample buffer for SDS-PAGE and analysed on NuPAGE Novex gradient gels, 3-8% or 4-12%, (Invitrogen), under nonreducing or reducing conditions. Cellular cadherin was detected by immunoblotting using rabbit pan anti-cadherin antiserum specific for the cytoplasmic domain. Alternatively, N-cadherin-Fc fusion protein was detected with rabbit anti-human IgG, Fc-specific (Pierce, code 31142). […]

[3] = target: T1, human N-cadherin naturally expressed on DX3 melanoma cells (human, UniProt P19022 160-906); assay: adhesion of DX3 cells to coated monomeric N-cadherin-Fc, oxidising buffer
T1 construct: also called DX3 Cells; N-cadherin+ve DX3 melanoma cells
T1 sequence: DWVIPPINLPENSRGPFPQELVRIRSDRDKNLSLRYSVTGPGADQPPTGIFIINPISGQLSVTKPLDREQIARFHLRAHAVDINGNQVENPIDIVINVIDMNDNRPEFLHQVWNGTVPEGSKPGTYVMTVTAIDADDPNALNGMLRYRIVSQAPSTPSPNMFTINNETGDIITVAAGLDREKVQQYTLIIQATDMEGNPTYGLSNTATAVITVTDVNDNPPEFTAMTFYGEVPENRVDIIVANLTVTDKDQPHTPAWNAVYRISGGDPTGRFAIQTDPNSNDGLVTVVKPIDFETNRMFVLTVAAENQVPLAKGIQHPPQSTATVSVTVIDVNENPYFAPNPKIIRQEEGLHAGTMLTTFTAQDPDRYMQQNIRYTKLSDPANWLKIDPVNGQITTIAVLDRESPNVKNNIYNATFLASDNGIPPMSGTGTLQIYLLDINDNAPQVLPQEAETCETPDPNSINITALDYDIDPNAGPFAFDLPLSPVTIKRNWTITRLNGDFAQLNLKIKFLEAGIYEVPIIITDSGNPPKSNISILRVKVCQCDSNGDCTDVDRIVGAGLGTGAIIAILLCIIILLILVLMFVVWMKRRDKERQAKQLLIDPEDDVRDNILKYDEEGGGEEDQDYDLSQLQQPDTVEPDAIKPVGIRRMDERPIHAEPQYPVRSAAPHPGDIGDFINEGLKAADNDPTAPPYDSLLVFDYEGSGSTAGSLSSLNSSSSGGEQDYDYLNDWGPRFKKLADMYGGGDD
Protocol: Monomeric or dimeric N-cadherin-Fc fusion protein in Cos cell supernatants was added as described for the ELISA assay. DX3 Cells, a human melanoma cell line which expresses N-cadherin, were dissociated with Cell Dissociation Solution (Sigma, code C5789), resuspended in HBSS with 2% FCS and assessed for adhesion to wild type or mutant N-cadherin-Fc as previously described (Corps et al., 2001). Microscopic examination established that the cells were present as a single cell suspension as they settled onto the plate. For assays conducted in reducing conditions, 10 mM DTT was present during the adhesion and washing steps. Determinations were conducted in triplicate and results are presented as mean +/−sem.

[4] = target: T2, full length chicken N-cadherin with the mutation D1C expressed on K562 cells (chicken, UniProt P10288 165-912, D1C); assay: Protein A Dynabeads coated with dimeric D27C N-cadherin-Fc mixed with K562 transfectants
T2 construct: whole, on cells; also called D1C cells; K562 D1C
T2 sequence (looked up): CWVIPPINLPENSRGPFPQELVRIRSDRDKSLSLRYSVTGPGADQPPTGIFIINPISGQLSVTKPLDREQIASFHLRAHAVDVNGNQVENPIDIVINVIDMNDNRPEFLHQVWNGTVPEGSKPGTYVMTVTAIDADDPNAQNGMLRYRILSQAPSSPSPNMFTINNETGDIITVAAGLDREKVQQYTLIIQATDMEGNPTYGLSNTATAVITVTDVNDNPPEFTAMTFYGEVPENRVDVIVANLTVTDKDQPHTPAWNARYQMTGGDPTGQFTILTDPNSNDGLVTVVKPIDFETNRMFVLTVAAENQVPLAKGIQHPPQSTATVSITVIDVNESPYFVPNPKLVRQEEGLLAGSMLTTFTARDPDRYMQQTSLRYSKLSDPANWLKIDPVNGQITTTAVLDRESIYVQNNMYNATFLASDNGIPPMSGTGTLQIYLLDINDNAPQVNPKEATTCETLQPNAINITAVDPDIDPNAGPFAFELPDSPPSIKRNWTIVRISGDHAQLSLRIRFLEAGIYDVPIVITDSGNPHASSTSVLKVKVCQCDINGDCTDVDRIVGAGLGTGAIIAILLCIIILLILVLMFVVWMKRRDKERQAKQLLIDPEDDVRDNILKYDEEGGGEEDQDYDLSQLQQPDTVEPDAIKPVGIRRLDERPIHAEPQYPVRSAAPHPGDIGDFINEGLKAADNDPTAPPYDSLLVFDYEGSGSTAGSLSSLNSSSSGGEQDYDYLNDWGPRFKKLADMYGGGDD
Protocol: (§2) In an alternative protocol, Dynabeads (Dynal) coupled to Protein A were coated with dimeric N-cadherin-Fc (1 μg/ml), bearing the mutation D27C, for 1 hour at room temperature in the presence of 0.1% Tween 20 and 4 mM EGTA (to prevent aggregation). The beads were then washed with HBSS. K562 transfectants expressing cell surface Ncadherin with the mutations D1C, R25C or D27C, were treated with 10 mM DTT for 15 minutes at 37° C., then washed and resuspended in HBSS without DTT. Cells ([…]) were mixed with 3 μl of beads coated with mutant N-cadherin-Fc in a final volume of 100 μl HBSS. Cells and beads were incubated together at room temperature for 2 hours with slow rotation to allow adhesion. Approximately five beads became attached to each cell and there was some clumping of attached and unattached beads. Iodoacetamide, 2 μl of 1.0M solution, was then added to alkylate free sulphydryl groups. The samples were then spun down at 1500 g and the cells were lysed in HBSS, 0.075% SDS, 1% NP40, 0.2 mM AEBSF, for 4 minutes on ice. Beads were then isolated with a magnet and washed twice with lysis buffer. Disulphide-bonded complexes between cellular cadherin and the Fc-fusion protein were analysed by SDS-PAGE and immunoblotting for cadherin cytoplasmic domain as described above. To ensure equal loading, membranes were stripped and re-assayed with anti-Human Fc.

[5] = target: T3, full length chicken N-cadherin with the mutation R25C expressed on K562 cells (chicken, UniProt P10288 165-912, R25C); assay: as above
T3 construct: whole, on cells; also called K562 R25C
T3 sequence (looked up): T2 sequence (looked up) with C1D, R25C
Protocol: as §2

[6] = target: T4, full length chicken N-cadherin with the mutation D27C expressed on K562 cells (chicken, UniProt P10288 165-912, D27C); assay: as above
T4 construct: whole, on cells; also called K562 D27C
T4 sequence (looked up): T2 sequence (looked up) with C1D, D27C
Protocol: as §2

[7] = target: T2, full length chicken N-cadherin with the …; assay: cell adhesion to coated monomeric N-cadherin-Fc, then non-reducing SDS-PAGE and immunoblot
Protocol: as §1

wild type monomeric chicken N-cadherin-Fc (mutations F405A and Y407A in the CH3 domain of Fc) (from UniProt P10288 165-729) (Fc fusion)
% cells adhering [1]: 65%

B1: monomeric chicken N-cadherin-Fc with the mutation D1C (Fc fusion, UniProt P10288 165-728, looked up)
chain: CWVIPPINLPENSRGPFPQELVRIRSDRDKSLSLRYSVTGPGADQPPTGIFIINPISGQLSVTKPLDREQIASFHLRAHAVDVNGNQVENPIDIVINVIDMNDNRPEFLHQVWNGTVPEGSKPGTYVMTVTAIDADDPNAQNGMLRYRILSQAPSSPSPNMFTINNETGDIITVAAGLDREKVQQYTLIIQATDMEGNPTYGLSNTATAVITVTDVNDNPPEFTAMTFYGEVPENRVDVIVANLTVTDKDQPHTPAWNARYQMTGGDPTGQFTILTDPNSNDGLVTVVKPIDFETNRMFVLTVAAENQVPLAKGIQHPPQSTATVSITVIDVNESPYFVPNPKLVRQEEGLLAGSMLTTFTARDPDRYMQQTSLRYSKLSDPANWLKIDPVNGQITTTAVLDRESIYVQNNMYNATFLASDNGIPPMSGTGTLQIYLLDINDNAPQVNPKEATTCETLQPNAINITAVDPDIDPNAGPFAFELPDSPPSIKRNWTIVRISGDHAQLSLRIRFLEAGIYDVPIVITDSGNPHASSTSVLKVKVCQCDINGDCTDVDRIVGAGLGT
notes: extracellular domain; not shown: hinge region, CH2 and CH3 domains of human IgG1 heavy chain (vector pIgSig)
binding result [2]: binds | binding result [3]: binds

B2: chicken N-cadherin-Fc fusion protein with the mutation D27C, dimeric (conventional fusion protein dimerised via Fc), coated to Protein A magnetic beads (Fc fusion, UniProt P10288 165-728, looked up)
chain: B1 chain with C1D, D27C
notes: extracellular domain; also called dimeric N-cadherin-Fc D27C; D27C beads; not shown: hinge region, CH2 and CH3 domains of human IgG1 heavy chain (vector pIgSig)
beads attached to each cell [4]: ~5 beads per cell | beads attached to each cell [5]: ~5 beads per cell | beads attached to each cell [6]: ~5 beads per cell

B3: monomeric chicken N-cadherin-Fc with the mutation R25C (Fc fusion, UniProt P10288 165-728, looked up)
chain: B1 chain with C1D, R25C
notes: as for B1
binding result [7]: binds | binding result [3]: binds

From patent publication US20080274950A1 (BABRAHAM INSTITUTE, published 2008)
